Target: T1, human PD-1 Fc recombinant protein (Homo sapiens, UniProt Q15116)
T1 construct: Programmed Cell Death Protein-1 (PD-1), human, bought as an Fc fusion; Ran at about 63 kDa in the blot; Surmise: the commercial product holds the extracellular domain of PD-1 fused to a human IgG1 Fc; The ELISA methods say only 'recombinant human PD-1'; also called recombinant human PD-1; Programmed Cell Death Protein-1; source: bought: Peprotech, Catalog # 310-40-1 MG
Test: far-Western, overlay or dot blot; Western blot: PD-1 Fc (200 ng) separated on 12% SDS-PAGE (denatured), transferred to nitrocellulose, blocked with 5% milk in TBST, probed overnight at 4°C with 10 μg/mL purified nanobody, detected with anti-His tag HRP antibody
Conditions: both partners purified

T1 sequence (Q15116 25-170): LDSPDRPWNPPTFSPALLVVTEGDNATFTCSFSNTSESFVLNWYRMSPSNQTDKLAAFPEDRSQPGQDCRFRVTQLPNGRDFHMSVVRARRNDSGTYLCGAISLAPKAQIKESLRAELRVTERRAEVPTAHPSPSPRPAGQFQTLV

- binding result: binds
B1: designed PD-1-specific nanobody (Cemiplimab CDRs grafted onto Caplacizumab framework regions) (VHH)
VHH: EVQLVESGGGLVQPGGSLRLSCAASGFTFSNFGMGWFRQAPGKGRELVAAISGGGRDTYYPDSVEGRFTISRDNAKRMVYLQMNSLRAEDTAVYYCVKWGNIYFDYWGQGTQVTVSS
notes: CDRs of the Cemiplimab heavy chain grafted onto the framework regions of Caplacizumab; 117 residues, 12.5 kDa without tag; Gene inserted into pET-28a (+) at NdeI and XhoI; with His tag about 13.5 kDa; Surmise: this cloning usually gives an N-terminal His6 tag with a thrombin site from the vector; also called NB; designed nanobody; source: E. coli BL21 (DE3), pET-28a (+), purified (Ni-NTA, …)
